Assay: yeast display, Sf9 membrane polyspecificity reagent, FACS + sequencing; frameworks hold sequencing errors
How it was run: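 Nanobodies came from a synthetic yeast display library in Saccharomyces cerevisiae BJ5465, induced with galactose for 36–48 hours and stained for 1 hour at 4 °C with 10% biotinylated, detergent-solubilized Sf9 membrane reagent. Cells were enriched on streptavidin microbeads and then FACS-sorted, with low and high (top ~1%) gates set on anti-HA fluorescence for expression and streptavidin fluorescence for reagent binding. Each polyreactivity label reflects the gate a clone came from. Genes were amplified by colony PCR, sequenced by MiSeq 2 × 250 and filtered by CDR length.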
For “QFQLVESGGGLVQAGGSLRLSCADSGRILRFYAMGWYRQAPGKERELVAAISWTGGRTYYADSVKGRFTISRDNAKNTVYLQMNSLKPEDTAVYYCAAEVFTTGSFRRYDYWGQGTQVTVSS”, the “polyreactivity (PSR sort gate)” value was “high polyreactivity”.
In the case of “QFQLVESGGGLVQAGGSLRLSCADSVRTLYRNVMVWYRHAPVKERELVAAISLSGGSTYYEDSVKGRFTISRDNANYTVYLQMNSMKPEYTAVYYCAVKRPYCPGEYGYWGQGTQVTVSS”, the “polyreactivity (PSR sort gate)” value is reported as “high polyreactivity”.
With “QFQLVESGGGLVQAGGSLRLSCASSGIIFKRYAMGWYRQAPGNERELVAAISTSGSTYYADSVKGRFTISRDNAKNTVYLQMNSLKPEDTAVYYCAAGRWWRYFTWHGYWGQGTQVTVSS” the “polyreactivity (PSR sort gate)” value was “high polyreactivity”.
For “QFQLVESGGGLVQAGGSLRLSFAASGFIFGLYAMGWYRQAPGIETELVAAISGSGGSTYYADSVKGRFTISRDNAKNTVYLQMNSLKPEDTAVYYCNRAQGVHTYVYRYGYWGQGTQVTVSS”, the “polyreactivity (PSR sort gate)” value was “low polyreactivity”.
For “QFQLVESGGGLVQAGGSLRLSSAASGSIFRSYAMGWYRQAHGKERELVAAISSRSGSTYYADSVKGRFTISRDNAKNTVYLQMNSLKPEETAVYYCAAQHRHSYGYWGQGTQVTVSS”, the “polyreactivity (PSR sort gate)” value was “high polyreactivity”.
For “QFQLVESGGGLVQAGGSLSLSCAASGSTLQSYAMGWYRQAPGKERELVAGIRISGGNTRYADSVKGRFTISRDNAKNTVYLQMNSLIPEDTAVYYCAALTGFYNLRPYGYWGQGTQVTVSS”, the “polyreactivity (PSR sort gate)” value was “high polyreactivity”.
For “QFQLVESGGGLVQARGSLRLSCAPSGRTFGIYTMGWYRPAPGKERELVAAISAGGGRTSYADSVKGRFTISRDHAKNTVYLQMMSLKPEDTAVYYCAARVYQYRNEDTTRRAGRSYWGQGTQVTVSS”, the “polyreactivity (PSR sort gate)” value was “high polyreactivity”.
With “QFQLVESGGGLVQEGGSLRLSCAPSGSTFRFYAMGWYRQSPGKERELVAVISSAGSTNYADSVKGRFTISRDNAKNTVYLQMNSLKPEDTAVYYCAAYRRYSIYNYWGEGTQVTVSS” the “polyreactivity (PSR sort gate)” value was “high polyreactivity”.
In the case of “QFQLVESGRGIVQAGGSLRLSCAASGFTFGPSAMVWYRQAPGKERELVAVISRSGGRTYYADSVKGRFTISRDNAKNTVYLQMNSLKPEDTAVYYCAAAGYGNDGYDYWGQGTQVTVSS”, the “polyreactivity (PSR sort gate)” value is reported as “high polyreactivity”.
For “QFQLVESGRGLVQAGGSIRLSCAASGSIFRWYAMGWSRQAPGKERELVAAISYGGGSTYYADSVKGRFTISRDNAKNTVYLQMNRLKPEDTAVYYCNRGYPSTLYDYWGQGTQVTVSS”, the “polyreactivity (PSR sort gate)” value was “high polyreactivity”.
In the case of “QFQLVESGRGLVQAGGSLRLSCAASGLIFRYYAMGWYRQAPGKERELVAAIRTGGSTYYADSVKGRFTISRDNAKNTVYLQMNSLKPEDTAVYYCAALLLSWYRTSYDFDYWGQGTQVTVSS”, the “polyreactivity (PSR sort gate)” value is reported as “high polyreactivity”.
In the case of “QFQLVESGVGLVQAGASLRLSCAASVLTFVGNAMGWYRQAPGKERELVDAISKRGGRTYYADSVKGRFRISRDNAKNTVYLQMNSLKPEDTAVYYCAATIKAYPTPLLGDYWGQGTQVTVSS”, the “polyreactivity (PSR sort gate)” value is reported as “high polyreactivity”.
In the case of “QFQLVESGVGLVQAGGSLRLSCAASGRTSGSYAMGWYRQAPGKERELVAVITTSDGSTYYADSVKGRFTISRDNAKNTVYLQMNSLKPEDTEVYYCNVDYPNLWYDSYYYWGQGTEVTVSS”, the “polyreactivity (PSR sort gate)” value is reported as “low polyreactivity”.
In the case of “QFQLVESWGGLVQAGGSLRLSCAASGYIFGYVMGWYRQAPGKERELVAAITYSSGNTYYADSVKGRFTISRDNAKNTVYLQMNSLKPEDTAVYYCAKQAYYKGRLAYGYWGQATQVTVSS”, the “polyreactivity (PSR sort gate)” value is reported as “high polyreactivity”.
With “QFQLVETGGGIVHAGGSLRLSCAASGSTFWYYAMGWYRQAPGKERELVAGITQSGGSTYYADSVKGRFTISRDNAKNTVYLQMNSLKPEDSAVYYFAKDGRVSGDFVYWGQGTQVTVSS” the “polyreactivity (PSR sort gate)” value was “low polyreactivity”.
In the case of “QFQLVETRRGLVQAGGSLRLSCAASGSIFLENAMRRYRQAPGKERELVAVINSGDSTYYADSVKGRFTMSRDNAKNTVYLQMNSLKPEDTSVYYCAADRDVRTRVFSYDYWGQGTQVTVSS”, the “polyreactivity (PSR sort gate)” value is reported as “low polyreactivity”.
For “QGHLVESGGGLFQAGGSLRLSCAASGSILSYYALGRYRQAPGKEMEMVAVINSGGRTNYADAVKGRFTISRDNAKYTVYLQMNSLKTEDTAVYDCAAQGYFVDRAGRYYRVDYRGQGTQVTVSS”, the “polyreactivity (PSR sort gate)” value was “high polyreactivity”.
With “QGQLEDSGGGLVQAGGSLRLSCAASGLTYDHNAMGWYRNATGKEREFFAVISWRGTSTYYADSVKGRFTISRDNAKNTVFLQMHSLKPEDTAVYYCATRYYGDDVYRYDHWGQGTQVTVSS” the “polyreactivity (PSR sort gate)” value was “high polyreactivity”.
With “QGQLEESGGGLVQAGGSLRLSCAASGFTIYRYAKGWYRQAPGKAMELVAAISNSGGSTYYADSVKGRFTISRDNAKNTVYVQMNSLKPEDTAVYYCAADPGYNVYGYYYWGQGTQVTVSS” the “polyreactivity (PSR sort gate)” value was “high polyreactivity”.
For “QGQLVEAGGGLVQAGGSLRLSCAASGNTFKKYARGWYRQAPGKERELVAAISNGGSTTYADSVKGRFTISLDTAKNTVYLQMNSLKPEDTAVYYCNAGRPYGTQKRYDYWGQGTQVTVSS”, the “polyreactivity (PSR sort gate)” value was “low polyreactivity”.
In the case of “QGQLVESGAGLVQAGGSLRLSCAASGFIFYDYVMGWYRQAPGKERELVAAITGSGGGTYYADSVKGRFTISRDNAKNTVYLQMNSLKPEDTAVYYCAADYISVYGYEYWGQGTQVTVSS”, the “polyreactivity (PSR sort gate)” value is reported as “high polyreactivity”.
In the case of “QGQLVESGGCLVQAGGSRRLSCAASGRTFRGNAMGWYRQAPGKERELVPAISRRGGSTYYSDSVKGRFTISRDNAKITVYLQMNSLEPEDTADYYCARDDVDDNSYGNENGTYGYWGQGTQVTVSS”, the “polyreactivity (PSR sort gate)” value is reported as “high polyreactivity”.

Reference: the nanobody polyreactivity screen of Harvey et al. (2022)
